Values quoted from earlier work in PMC3417803.
Read-outs that look alike come from different tables or passages of the source.

What was measured:
Midkine (Homo sapiens) [1] = biological target: Midkine (Homo sapiens) (UniProt P21741)
Midkine (Homo sapiens) [2] = biological target: Midkine (Homo sapiens) (UniProt P21741); remark: listed apart in the source

Chain of UniProt P21741 (P21741 21-143): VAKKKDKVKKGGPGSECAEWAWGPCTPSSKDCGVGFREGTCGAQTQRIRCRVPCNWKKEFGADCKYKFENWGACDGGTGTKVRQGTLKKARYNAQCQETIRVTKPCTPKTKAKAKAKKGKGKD

Substance: PTPζ (from UniProt P23471)
- Kd (Midkine (Homo sapiens) [1]): 8.8 nM
- Kd (Midkine (Homo sapiens) [2]): 0.56 nM
